Experimental findings from PMC12318183, “Structure reveals a regulation mechanism of plant outward-rectifying K^+ channel GORK by structural rearrangements in the CNBD–Ankyrin bridge” (Proceedings of the National Academy of Sciences of the …, 2025) are described below.

Series [1] has as its target GORK(CA-ANK)_(AKT1) chimeric channel (Arabidopsis thaliana | Arabidopsis).
Series [2] concerns the molecule itself. As to the kind of experiment: cryo-EM structure; single-particle cryo-EM of purified GORK at 4 mg/ml; SEC buffer 0.02% GDN, 150 mM KCl, 20 mM Tris pH 8.0, 2 mM DTT; consensus map and five maps from ANK-focused 3D classification.

Consider “CIPK23/CBL1 protein kinase complex (from UniProt Q93VD3 1-482; O81445 1-213)”, for which the outward K+ current of GORK(CA-ANK) (AKT1) in Xenopus oocytes with coexpressed CIPK23/CBL1 against without, two-electrode voltage clamp, at 70 mV in series [1] is 3 fold.

B1: GUARD CELL OUTWARD-RECTIFYING K+ (GORK) channel (natural protein, Arabidopsis thaliana)
chain: GRLRRRQEIIDHEEEESNDDVSSRRGKLSLAETFRWLDSSEHRRIETDGHNDYKYIIHPKNRWYKAWEMFILVWAIYSSLFTPMEFGFFRGLPERLFVLDIVGQIAFLVDIVLQFFVAYRDTQTYRTVYKPTRIAFRYLKSHFLMDFIGCFPWDLIYKASGKHELVRYLLWIRLFRVRKVVEFFQRLEKDTRINYLFTRILKLLFVEVYCTHTAACIFYYLATTLPPENEGYTWIGSLKLGDYSYENFREIDLWKRYTTALYFAIVTMATVGYGDIHAVNLREMIFVMIYVSFDMVLGAYLIGNITALIVKGSNTERFRDKMNDLISFMNRKKLGRDLRSQITGHVRLQYDSHYTDTVMLQDIPASIRAKIAQLLYLPYIKKVPLFKGCSTEFINQIVIRLHEEYFLPGEVITEQGNVVDHLYFVCEGLLEALVTKTDGSEESVTLLGPHTSFGDISIICNISQPFTVRVCELCHLLRLDKQSFSNILEIYFHDGRTILNNIMEEKESNDRIKKLESDIVIHIGKQEAELALKVNSAAFQGDFYQLKSLIRSGADPNKTDYDGRSPLHLAACRGYEDITLFLIQEGVDVNLKDKFGHTPLFEAVKAGQEGVIGLLVKEGASFNLEDSGNFLCTTVAKGDSDFLKRLLSSGMNPNSEDYDHRTPLHVAASEGLFLMAKMLVEAGASVISKDRWGNSPLDEARLCGNKKLIKLLEDVKNAQSSIYPSSLRELQEERIERRKCTVFPFHPQEAKEERSRKHGVVVWIPSNLEKLIVTAAKELGLSDGASFVLLSEDQGRITDIDMISDGHKLYMISDTTDQT
notes: GORK outward-rectifying K+ channel, Arabidopsis thaliana, UniProt Q94A76; optimised synthetic coding DNA; positions counted from the initial Met; the model covers about residues 50-720; No step that removes a tag is described; Solubilised in LMNG/CHS, kept in GDN; also called GORKWT1; GORKWT2
As for B1, in series [2], the “stoichiometry N” value came out at 4.
